Experimental data published in paper PMC2582609.

What was measured:
[1] = target: NIPBL R1895T (CdLS missense mutation) GAL4-DNA-binding domain fusion (human) (UniProt Q6KC79); experiment: two-hybrid
[2] = target: NIPBL R1856G (CdLS missense mutation) GAL4-DNA-binding domain fusion (human) (UniProt Q6KC79); experiment: two-hybrid

β-galactosidase activity compared to the wild-type construct [1]: 50% | β-galactosidase activity compared to the wild-type construct [2]: 50%
Substance: full-length HDAC3 fused to the GAL4-activating domain (from UniProt O15379 1-428) (enzyme)
